US20120177651A1 (published 2012)

Tests used:
recombinant human HGF [1] = molecular target: T1, recombinant human HGF (human, UniProt P14210 32-728); assay: cell-based or functional assay; design: unit not given beside the values
recombinant human HGF [2] = molecular target: T1, recombinant human HGF; assay: SPR (Biacore T100), human HGF immobilised on CM5 chip, antibody as analyte, 1:1 binding model, 25 C
recombinant human HGF [3] = molecular target: T1, recombinant human HGF; assay: ELISA on plate-coated recombinant human HGF, detection with anti-human kappa light chain peroxidase conjugate, Abs 490 nm
recombinant human HGF [4] = molecular target: T1, recombinant human HGF; assay: SPR (Biacore T100), human HGF immobilised on CM5 chip, antibody as analyte, bivalent analyte model, 25 C
human VEGF = molecular target: T2, human VEGF (human, UniProt P15692-4 27-191, limits assumed); assay: SPR (Biacore T100), antibody captured on Protein A C1 chip, human VEGF as analyte
T2 construct: The background says that VEGF-A isoforms form homodimers

recombinant human HGF [5] = molecular target: T1, recombinant human HGF; assay: cell-based or functional assay

T1 sequence (P14210 32-728 limits assumed): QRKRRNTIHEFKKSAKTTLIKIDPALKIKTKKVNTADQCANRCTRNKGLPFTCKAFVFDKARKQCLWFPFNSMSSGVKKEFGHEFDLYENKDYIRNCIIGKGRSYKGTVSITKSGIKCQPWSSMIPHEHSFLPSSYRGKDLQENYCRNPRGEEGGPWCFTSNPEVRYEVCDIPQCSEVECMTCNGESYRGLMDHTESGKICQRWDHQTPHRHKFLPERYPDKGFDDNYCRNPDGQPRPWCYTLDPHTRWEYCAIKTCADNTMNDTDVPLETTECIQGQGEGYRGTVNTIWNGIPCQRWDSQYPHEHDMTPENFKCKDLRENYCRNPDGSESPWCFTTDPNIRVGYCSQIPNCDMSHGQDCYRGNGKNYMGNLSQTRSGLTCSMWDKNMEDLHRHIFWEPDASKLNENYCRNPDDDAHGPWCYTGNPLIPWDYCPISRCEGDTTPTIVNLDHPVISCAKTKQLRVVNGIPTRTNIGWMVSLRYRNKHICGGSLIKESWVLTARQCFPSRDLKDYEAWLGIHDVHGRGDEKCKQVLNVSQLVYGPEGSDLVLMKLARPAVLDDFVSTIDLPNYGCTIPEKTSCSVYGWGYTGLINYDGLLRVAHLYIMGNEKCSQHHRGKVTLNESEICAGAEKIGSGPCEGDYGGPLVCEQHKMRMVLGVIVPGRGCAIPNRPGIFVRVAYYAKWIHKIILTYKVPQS
T2 sequence (P15692 other isoform, or with tags, fused parts or gaps limits assumed): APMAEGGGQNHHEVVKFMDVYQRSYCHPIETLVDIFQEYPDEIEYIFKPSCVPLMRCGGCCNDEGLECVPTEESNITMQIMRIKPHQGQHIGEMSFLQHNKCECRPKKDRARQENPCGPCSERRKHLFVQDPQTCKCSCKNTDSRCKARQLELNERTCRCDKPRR

IC50, MET phosphorylation in Bx-PC3 cells (mean of three experiments) (recombinant human HGF [1]) | Kd (recombinant human HGF [2]) [nM] | koff (recombinant human HGF [2]) [s⁻¹] | kon (recombinant human HGF [2]) [M⁻¹ s⁻¹] | EC50 (read off the curve) (recombinant human HGF [3]) [nM] | Kd (recombinant human HGF [4]) [nM] | koff (recombinant human HGF [4]) [s⁻¹] | kon (recombinant human HGF [4]) [M⁻¹ s⁻¹] | IC50, % phospho AKT in Bx-PC3 cells (MSD, mean of two experiments) (recombinant human HGF [5]) [nM] | IC50, % phospho ERK in Bx-PC3 cells (MSD, mean of two experiments) (recombinant human HGF [5]) [nM] | IC50, % phospho MET in Bx-PC3 cells (MSD, mean of two experiments) (recombinant human HGF [5]) [nM] | IC50, Bx-PC3 cell migration with 25 ng/ml HGF (Oris, mean of three experiments) (recombinant human HGF [5]) [nM] | Binder | binding result (human VEGF)
3.6 | 0.88 | 0.000122 | 140000 | ~1 | 0.83 | 0.000202 | 242000 |  |  |  |  | BPC2013 (antibody, human IgG1, kappa, V domains shown, Full human IgG1 (Fc wild type) / kappa anti-HGF antibody, expressed in HEK 293-6E cells; also called 2.12.1; anti-HGF mAb 2.12.1) VH: QVQLQESGPGLVKPSETLSLTCTVSGGSISIYYWSWIRQPPGKGLEWIGYVYYSGSTNYNPSLKSRVTISVDTSKNQFSLKLNSVTAADTAVYYCARGGYDFWSGYFDYWGQGTLVTVSS VL: not shown | no binding (tested: human VEGF up to 256 nM)
4.5 | 1.54 | 0.00011 | 71400 | ~1 | 1.62 | 0.000204 | 126000 |  |  |  |  | BPC2014 (antibody, human IgG1, kappa, V domains shown, Full human IgG1 (Fc wild type) / kappa anti-HGF antibody, expressed in HEK 293-6E cells; also called HE2B8-4; anti-HGF mAb LRMR2B8) VH: QVQLVQPGAEVKKPGTSVKLSCKASGYTFTTYWMHWVRQAPGQGLEWIGEINPTNGHTNYNQKFQGRATLTVDKSTSTAYMELSSLRSEDTAVYYCARNYVGSIFDYWGQGTLVTVSS VL: DIVMTQSPDSLAMSLGERVTLNCKASENVVSYVSWYQQKPGQSPKLLIYGASNRESGVPDRFSGSGSATDFTLTISSVQAEDVADYHCGQSYNYPYTFGQGTKLEIKR | no binding (tested: human VEGF up to 256 nM)
4.2 | 0.44 | 8.19e-05 | 186000 | ~0.7 | 0.58 | 0.000132 | 228000 | 0.63 | 0.98 | 0.4 | 0.33 | BPC2015 (antibody, human IgG1, kappa, V domains shown, Full human IgG1 (Fc wild type) / kappa anti-HGF antibody, expressed in HEK 293-6E cells; also called HuL2G7; anti-HGF mAb HuL2G7) VH: EVQLVQSGAEVKKPGASVKVSCKVSGYTFSGNWIEWVRQAPGKGLEWIGEILPGSGNTNYNEKFKGKATMTADTSTDTAYMELSSLRSEDTAVYYCARGGHYYGSSWDYWGQGTLVTVSS VL: DIVMTQSPSSLSASVGDRVTITCKASENVVTYVSWYQQKPGKAPKLLIYGASNRYTGVPDRFSGSGSGTDFTLTISSLQPEDFATYYCGQGYSYPYTFGQGTKLEIKR | 
